Changes are numbered by the printed parent chain.
B1: 18R5: human anti-FZD antibody; VH SEQ ID NO:10 (as 18R8), VL SEQ ID NO:14; binds FZD1, 2, 5, 7, 8 (antibody, V domains shown)
VH: EVQLVESGGGLVQPGGSLRLSCAASGFTFSHYTLSWVRQAPGKGLEWVSVISGDGSYTYYADSVKGRFTISSDNSKNTLYLQMNSLRAEDTAVYYCARNFIKYVFANWGQGTLVTVSS
VL: DIELTQPPSVSVAPGQTARISCSGDNIGSFYVHWYQQKPGQAPVLVIYDKSNRPSGIPERFSGSNSGNTATLTISGTQAEDEADYYCQSYANTLSLVFGGGTKLTVLG
modifications: 18R5/18R8 heavy chain variable region (VH); 18R5 light chain variable region (VL)
B2: 18R8: human anti-FZD antibody from phage display; VH SEQ ID NO:10, VL SEQ ID NO:12; binds FZD1, 2, 5, 7, 8 (antibody, V domains shown)
VH: B1 VH
VL: DIELTQPPSVSVAPGQTARISCSGDKLGKKYASWYQQKPGQAPVLVIYEKDNRPSGIPERFSGSNSGNTATLTISGTQAEDEADYYCSSFAGNSLEVFGGGTKLTVLG
modifications: 18R5/18R8 heavy chain variable region (VH); 18R8 light chain variable region (VL)

What was measured:
[1] = test system: OMP-Pn4 pancreatic tumor xenografts; test: OMP-Pn4 pancreatic tumor xenograft growth; assay type: in vivo, NOD/SCID mice; conditions: 10 mg/kg IP once weekly
Experimental: In another embodiment, anti-FZD antibodies were analyzed for their ability to reduce the growth of OMP-Pn4 pancreatic tumor xenografts. NOD/SCID mice were purchased from Harlan (Indianapolis, Ind.) and allowed to acclimate for several days prior to the studies. The establishment and characterization of in vivo cancer stem cell-driven pancreas xenograft models were described previously (Li et al., Cancer Res., 67:1030-7, 2007). For efficacy studies, OMP-Pn4 human pancreatic tumor cells were dissociated into single cell suspensions, resuspended in 1:1 (v/v) mixture of FACS buffer (Hank's balanced salt solution [HBSS] supplemented with 2% heat-inactivated fetal bovine serum and 20 mM Hepes) and Matrigel (BD Bioscience, San Jose, Calif.) and implanted subcutaneously into the right flank region of 6-7 weeks old male NOD/SCID mice with a 25-gauge needle containing 50,000 cells/100 μL. Tumor growth was monitored weekly and tumor measurements were initiated once tumors were palpable. […] Tumor growth was measured by with an electronic caliper (Coast Tools Company, San Leandro, Calif.). Tumors were measured once a week and tumor volume was determined using the formula ½(a×b^2); where a=length (longest axis of the tumor), and b=breadth (shortest axis of the tumor). […] Data are expressed as mean±S.E.M. Differences in mean values between groups were analyzed by non-parimetric t test. […]

[2] = test system: OMP-LU24 human lung tumors; test: OMP-LU24 lung tumor xenograft growth; assay type: in vivo, NOD-SCID mice; conditions: antibody 10 mg/kg IP once per week, Taxol 15 mg/kg IP once per week
Experimental: 50,000 OMP-LU24 human lung tumor cells were injected subcutaneously in NOD-SCID mice. Tumors were allowed to grow for 27 days until they reached an average volume of 143 mm^3. The animals were randomized into 4 groups (n=9 per group) and treated with either control antibody (“Control Ab”), anti-FZD 18R5 (“18R5”), Taxol® (“Taxol”) or the combination of 18R5 plus Taxol® (“18R5+Taxol”). Antibodies were dosed at 10 mg/kg intraperitoneal (IP), once per week and Taxol® was dosed at 15 mg/kg, IP, once per week.

PN4 pancreatic tumor = PN4 pancreatic tumor recurrence study; assay type: in vivo, Nod-Scid mice; conditions: gemcitabine 75 mg/kg once per week for 5 weeks, then antibody 10 mg/kg once per week
Experimental: PN4 pancreatic tumor recurrence study with 18R5 mAb: PN4 pancreatic tumor cells were injected into Nod-Scid mice and allowed to grow until the tumors had reached approximately 250 mm^3. The animals were given gemcitabine (75 mg/kg, once per week) for 5 weeks until tumors had regressed. The animals were randomized into two groups and given control antibody (black squares) or anti-FZD 18R5 (gray open circles). Antibodies were dosed at 10 mg/kg once per week.

FZD8 [3] = target: T1, FZD8 (Homo sapiens, UniProt Q9H461, D83Q/P82S); test: Epitope mapping by FACS on FZD8 Fri domain variants on HEK293 cells; assay type: binding; conditions: amino acid residues 82-83 mutated from PD to SQ
T1 construct: N-terminus of the Fri domain of FZD8 in turn fused to the transmembrane domain and intracellular domain of CD4 protein; expressed in transfected cells; host or cells: HEK293
T1 sequence (Q9H461 28-158 P82S/D83Q): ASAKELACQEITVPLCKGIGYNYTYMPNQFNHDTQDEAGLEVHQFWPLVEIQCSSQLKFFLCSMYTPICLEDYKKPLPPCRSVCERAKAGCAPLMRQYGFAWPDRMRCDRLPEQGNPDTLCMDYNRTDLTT

FZD8 [4] = target: T2, FZD8 (Homo sapiens, UniProt Q9H461, S109Q); test: as above; assay type: binding; conditions: amino acid 109S changed to 109Q
T2 construct: N-terminus of the Fri domain of FZD8 in turn fused to the transmembrane domain and intracellular domain of CD4 protein; expressed in transfected cells; host or cells: HEK293
T2 sequence (Q9H461 28-158 S109Q): T1 sequence (Q9H461 28-158 P82S/D83Q) with S55P, Q56D, S82Q

Row | Molecule | tumor growth, monotherapy [1] | xenograft tumor growth [2] | tumor recurrence after gemcitabine treatment (PN4 pancreatic tumor) | binding to FZD8 variant (FZD8 [3]) | binding to FZD8 variant (FZD8 [4])
1 | B1 | did not result in a significant reduction in tumor growth | inhibits OMP-LU24 xenograft tumor growth | delay tumor recurrence | – | –
2 | B2 | – | – | – | largely unaffected | no appreciable effect
